Measured values: publication PMC12529927, “Functional microRNA targeting without seed pairing”

What was measured:
[1] = molecular target: T1, AGO2 (loaded with guide RNA) (Homo sapiens, UniProt Q9UKV8 1-859); assay: filter binding; no boost over m9_22; 18 mM HEPES pH 7.4, 100 mM K-acetate, 1 mM Mg-acetate, 0.01% IGEPAL, 0.01 mg/mL yeast tRNA, 5 mM DTT, BSA, glycerol, 37 C, 4 h, 1-5 pM target; kinetics with 10; settings: protein: recombinant, tags: 3xFLAG-SUMOEu1 (removed by SENPEuB cleavage), label: 32P target, offset +3
[2] = molecular target: T1, AGO2 (loaded with guide RNA); assay: filter binding; modest boost over m9_22; 18 mM HEPES pH 7.4, 100 mM K-acetate, 1 mM Mg-acetate, 0.01% IGEPAL, 0.01 mg/mL yeast tRNA, 5 mM DTT, BSA, glycerol, 37 C, 4 h, 1-5 pM target; kinetics with 10; settings: protein: recombinant, tags: 3xFLAG-SUMOEu1 (removed by SENPEuB cleavage), label: 32P target, offset +3
[3] = molecular target: T1, AGO2 (loaded with guide RNA); assay: filter binding; modest boost over m11_23; 18 mM HEPES pH 7.4, 100 mM K-acetate, 1 mM Mg-acetate, 0.01% IGEPAL, 0.01 mg/mL yeast tRNA, 5 mM DTT, BSA, glycerol, 37 C, 4 h, 1-5 pM target; kinetics with 10; settings: protein: recombinant; tags: 3xFLAG-SUMOEu1 (removed by SENPEuB cleavage); label: 32P target; g11-23 and g2-6 paired, offset +2
[4] = molecular target: T1, AGO2 (loaded with guide RNA); assay: filter binding; length-matched; slightly weaker than m2_6; 18 mM HEPES pH 7.4, 100 mM K-acetate, 1 mM Mg-acetate, 0.01% IGEPAL, 0.01 mg/mL yeast tRNA, 5 mM DTT, BSA, glycerol, 37 C, 4 h, 1-5 pM target; kinetics with 10; settings: protein: recombinant; tags: 3xFLAG-SUMOEu1 (removed by SENPEuB cleavage); label: 32P target; g11-23 and g2-5 paired, offset +2

T1 sequence (Q9UKV8 whole entry): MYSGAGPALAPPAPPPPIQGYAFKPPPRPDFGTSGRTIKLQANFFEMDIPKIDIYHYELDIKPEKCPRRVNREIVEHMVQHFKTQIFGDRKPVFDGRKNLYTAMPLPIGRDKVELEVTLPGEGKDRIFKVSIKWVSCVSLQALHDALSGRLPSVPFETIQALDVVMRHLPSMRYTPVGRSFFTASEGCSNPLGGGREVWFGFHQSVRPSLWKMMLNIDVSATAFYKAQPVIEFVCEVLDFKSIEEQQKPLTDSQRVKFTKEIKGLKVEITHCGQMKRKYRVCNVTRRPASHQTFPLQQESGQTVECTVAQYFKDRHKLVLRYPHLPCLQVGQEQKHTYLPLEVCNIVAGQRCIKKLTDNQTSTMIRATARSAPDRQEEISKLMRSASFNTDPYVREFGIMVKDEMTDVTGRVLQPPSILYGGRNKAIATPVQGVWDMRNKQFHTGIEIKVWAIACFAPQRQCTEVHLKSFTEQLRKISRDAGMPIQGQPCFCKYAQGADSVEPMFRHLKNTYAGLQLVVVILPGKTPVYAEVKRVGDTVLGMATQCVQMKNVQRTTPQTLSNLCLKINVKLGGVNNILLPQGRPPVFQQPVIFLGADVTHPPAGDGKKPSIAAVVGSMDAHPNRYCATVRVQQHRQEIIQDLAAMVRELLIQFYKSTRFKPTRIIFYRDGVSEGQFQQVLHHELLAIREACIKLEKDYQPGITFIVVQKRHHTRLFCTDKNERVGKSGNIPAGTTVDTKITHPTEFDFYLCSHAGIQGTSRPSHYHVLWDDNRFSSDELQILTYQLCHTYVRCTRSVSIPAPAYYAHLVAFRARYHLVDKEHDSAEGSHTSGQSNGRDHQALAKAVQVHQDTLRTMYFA

B1: miR-124 mut / m9_22|+3|m2 (mixed)
RNA 1: UCUGGCUCGCGGUGAAUGCCAA
RNA 2: UUUUUUGGCAUUCACCGCUUUUUUUUUGUUUU
modifications: 5'-phosphate guide
binding result ([1]; g9-22 and g2 paired): binds

B2: miR-124 mut / m9_22|+3|m2_5 (mixed)
RNA 1: UCUGGCUCGCGGUGAAUGCCAA
RNA 2: UUUUUUGGCAUUCACCGCUUUUUUCCAGUUUU
modifications: 5'-phosphate guide
binding result ([2]; g9-22 and g2-5 paired): binds

B3: miR-124 mut / m9_22|+3|m2_4 (mixed)
RNA 1: UCUGGCUCGCGGUGAAUGCCAA
RNA 2: UUUUUUGGCAUUCACCGCUUUUUUUCAGUUUU
modifications: 5'-phosphate guide
binding result ([2]; g9-22 and g2-4 paired): binds

B4: miR-124 mut / m9_22|+3|m2_3 (mixed)
RNA 1: UCUGGCUCGCGGUGAAUGCCAA
RNA 2: UUUUUUGGCAUUCACCGCUUUUUUUUAGUUUU
modifications: 5'-phosphate guide
binding result ([1]; g9-22 and g2-3 paired): binds

B5: miR-155 mut / m11_23|+2|m2_6 (mixed)
RNA 1: UUCGUGCUAAUCGUGAUAGGGGU
RNA 2: UUUUACCCCUAUCACGACCUUUUCACGAUUUU
modifications: 5'-phosphate guide
binding result [3]: binds

B6: miR-155 mut / m11_23|+2|m2_5 (repeat) (mixed)
RNA 1: UUCGUGCUAAUCGUGAUAGGGGU
RNA 2: UUUUACCCCUAUCACGACCUUUUUACGAUUUU
modifications: 5'-phosphate guide
binding result [4]: binds
